Three substances from patent US20230340070A1 can be followed below.

In experiment [1] the target is anti-TRP-1 antibody (TA99, BioXcell). Description: cell-based or functional assay.
Experiment [2] concerns the target anti-CD20 antibody (18B12, Absolute antibody). Description: cell-based or functional assay.

With “Alpha-2A-gamma (extracellular, transmembrane and intracellular domains of FcγRI, T2A skipping peptide and FcRγ) (receptor)”, in experiment [1], the B16-H2B-tdTomato target cell count after 48 hours co-culture with infected CD8+ T cells and anti-TRP-1 antibody (FIG. 8C; sham: around 750 B16 cells) amounted to 575 B16 cells; the killing of B16-H2B-tdTomato target cells by infected CD4+ and CD8+ T cells with anti-TRP-1 antibody, incuCyte target cell numbers after 48 hours; effector : target ratio needed (effector : target ratio (x to 1)) was greater than 8.

“Alpha-gamma-2A-gamma (extracellular and transmembrane domains of FcγRI fused to the intracellular domain of FcRγ, T2A skipping peptide and FcRγ)”: the killing of B16-H2B-tdTomato target cells by infected T cells with anti-TRP-1 antibody, incuCyte; effector : target ratio at which killing was induced (effector : target ratio (x:1)) in experiment [1] turned out to be 2.

In turn, “Alpha-gamma-2A-gamma (extracellular and transmembrane domains of FcγRI fused to the intracellular domain of FcRγ, T2A skipping peptide and FcRγ) (receptor)” yielded an A20 B-cell lymphoma cell death by Annexin-V staining in flow cytometry after co-culture with infected CD8+ T cells and anti-CD20 antibody in experiment [2] of 20%. The substance also displayed a B16-H2B-tdTomato target cell count after 48 hours co-culture with infected CD8+ T cells and anti-TRP-1 antibody (FIG. 8C; sham: around 750 B16 cells) in experiment [1] of 460 B16 cells.
